Like-named read-outs stand apart in the source and are kept apart here.
B1: h10A11 (IGKV3-20/IGHV3-15 T94R) (antibody, V domains shown)
VH: EVQLVESGGALVKPGGSLRLSCAASGFTFSTYALYWVRQAPGKGLEWVGRIRSKSNNYATYYADSVKDRFTISRDDSKNTLYLQMNSLKTEDTAVYYCTRARFYYSDYGYAMDYWGQGTLVTVSS
VL: EIVLTQSPGTLSLSPGERATLSCRSSKSLLHSNGNTYLYWYQQKPGQAPRLLIYRMSNLASGIPDRFSGSGSGTDFTLTISRLEPEDFAVYYCMQHLEYPLTFGQGTKVEIKR
B2: h10A11 (IGKV1-39/IGHV3-73) (antibody, V domains shown)
VH: EVQLVESGGGLVQPGGSLKLSCAASGFAFNTYALYWVRQASGKGLEWVGRIRSKSNNYATYYADSVKDRFTISRDDSKNTAYLQMNSLKTEDTAVYYCTRARFYYSDYGYAMDYWGQGTLVTVSS
VL: DIQMTQSPSSLSASVGDRVTITCRSSKSLLHSNGNTYLYWYQQKPGKAPKLLIYRMSNLASGVPSRFSGSGSGTDFTLTISSLQPEDFATYYCMQHLEYPLTFGQGTKLEIKR
B3: h10A11 (IGKV2-28/IGHV3-73) (antibody, V domains shown)
VH: EVQLVESGGGLVQPGGSLKLSCAASGFAFNTYALYWVRQASGKGLEWVGRIRSKSNNYATYYADSVKDRFTISRDDSKNTAYLQMNSLKTEDTAVYYCTRARFYYSDYGYAMDYWGQGTLVTVSS
VL: DIVMTQSPLSLPVTPGEPASISCRSSKSLLHSNGNTYLYWYLQKPGQSPQLLIYRMSNLASGVPDRFSGSGSGTDFTLKISRVEAEDVGVYYCMQHLEYPLTFGQGTKVEIKR
B4: h10A11 (IGKV1-16/IGHV3-15 T94R) (antibody, V domains shown)
VH: EVQLVESGGALVKPGGSLRLSCAASGFTFSTYALYWVRQAPGKGLEWVGRIRSKSNNYATYYADSVKDRFTISRDDSKNTLYLQMNSLKTEDTAVYYCTRARFYYSDYGYAMDYWGQGTLVTVSS
VL: DIQMTQSPSSLSASVGDRVTITCRSSKSLLHSNGNTYLYWFQQKPGKAPKSLIYRMSNLASGVPSRFSGSGSGTDFTLTISSLQPEDFATYYCMQHLEYPLTFGQGTKLEIKR
B5: h10A11 IGKV3-20 N53Q, G29R/IGHV3-15 T94R (antibody, V domains shown)
VH: EVQLVESGGALVKPGGSLRLSCAASGFTFSTYALYWVRQAPGKGLEWVGRIRSKSNNYATYYADSVKDRFTISRDDSKNTLYLQMNSLKTEDTAVYYCTRARFYYSDYGYAMDYWGQGTLVTVSS
VL: EIVLTQSPGTLSLSPGERATLSCRSSKSLLHSNRNTYLYWYQQKPGQAPRLLIYRMSQLASGIPDRFSGSGSGTDFTLTISRLEPEDFAVYYCMQHLEYPLTFGQGTKVEIKR
B6: h10A11 IGKV3-20 N53Q, G29L/IGHV3-15 T94R (antibody, V domains shown)
VH: EVQLVESGGALVKPGGSLRLSCAASGFTFSTYALYWVRQAPGKGLEWVGRIRSKSNNYATYYADSVKDRFTISRDDSKNTLYLQMNSLKTEDTAVYYCTRARFYYSDYGYAMDYWGQGTLVTVSS
VL: EIVLTQSPGTLSLSPGERATLSCRSSKSLLHSNLNTYLYWYQQKPGQAPRLLIYRMSQLASGIPDRFSGSGSGTDFTLTISRLEPEDFAVYYCMQHLEYPLTFGQGTKVEIKR
B7: h10A11 (IGKV2-40/IGHV3-73) (antibody, V domains shown)
VH: EVQLVESGGGLVQPGGSLKLSCAASGFAFNTYALYWVRQASGKGLEWVGRIRSKSNNYATYYADSVKDRFTISRDDSKNTAYLQMNSLKTEDTAVYYCTRARFYYSDYGYAMDYWGQGTLVTVSS
VL: DIVMTQTPLSLPVTPGEPASISCRSSKSLLHSNGNTYLYWYLQKPGQSPQLLIYRMSNLASGVPDRFSGSGSGTDFTLKISRVEAEDVGVYYCMQHLEYPLTFGQGTKLEIKR
B8: h10A11 IGKV3-20 N53Q, N28K/IGHV3-15 T94R (antibody, V domains shown)
VH: EVQLVESGGALVKPGGSLRLSCAASGFTFSTYALYWVRQAPGKGLEWVGRIRSKSNNYATYYADSVKDRFTISRDDSKNTLYLQMNSLKTEDTAVYYCTRARFYYSDYGYAMDYWGQGTLVTVSS
VL: EIVLTQSPGTLSLSPGERATLSCRSSKSLLHSKGNTYLYWYQQKPGQAPRLLIYRMSQLASGIPDRFSGSGSGTDFTLTISRLEPEDFAVYYCMQHLEYPLTFGQGTKVEIKR
B9: h10A11 (IGKV1-39/IGHV3-15 T94R) (antibody, V domains shown)
VH: EVQLVESGGALVKPGGSLRLSCAASGFTFSTYALYWVRQAPGKGLEWVGRIRSKSNNYATYYADSVKDRFTISRDDSKNTLYLQMNSLKTEDTAVYYCTRARFYYSDYGYAMDYWGQGTLVTVSS
VL: DIQMTQSPSSLSASVGDRVTITCRSSKSLLHSNGNTYLYWYQQKPGKAPKLLIYRMSNLASGVPSRFSGSGSGTDFTLTISSLQPEDFATYYCMQHLEYPLTFGQGTKLEIKR
B10: h10A11 (IGKV2-40/IGHV3-15 T94R) (antibody, V domains shown)
VH: EVQLVESGGALVKPGGSLRLSCAASGFTFSTYALYWVRQAPGKGLEWVGRIRSKSNNYATYYADSVKDRFTISRDDSKNTLYLQMNSLKTEDTAVYYCTRARFYYSDYGYAMDYWGQGTLVTVSS
VL: DIVMTQTPLSLPVTPGEPASISCRSSKSLLHSNGNTYLYWYLQKPGQSPQLLIYRMSNLASGVPDRFSGSGSGTDFTLKISRVEAEDVGVYYCMQHLEYPLTFGQGTKLEIKR
B11: h10A11 IGKV4-1 N53Q, G29R/IGHV3-15 T94R (antibody, V domains shown)
VH: EVQLVESGGALVKPGGSLRLSCAASGFTFSTYALYWVRQAPGKGLEWVGRIRSKSNNYATYYADSVKDRFTISRDDSKNTLYLQMNSLKTEDTAVYYCTRARFYYSDYGYAMDYWGQGTLVTVSS
VL: DIVMTQSPDSLAVSLGERATINCRSSKSLLHSNRNTYLYWYQQKPGQPPKLLIYRMSQLASGVPDRFSGSGSGTDFTLTISSLQAEDVAVYYCMQHLEYPLTFGQGTKLEIKR
B12: 2-7B (antibody, V domains shown)
VH: EVQLVESDGGLVQPGRSLKLSCAASGFTFSDYYMAWVRQAPTKGLEWVATITYDVYSTYYRDSVKGRFTISRDNAKSTLYLQMDSLRSEDTATYYCARHGGDGYNSGNWFAYWGQGTLVTVSS
VL: DIVLTQSPALAVSLGQRATISCRASQSVSISRYNIMHWYQQKPGQQPKLLIYRASNLASGIPARFSGSGSGTDFTLTINPVQADDIATYYCQQSRESPPTFGGGTKLELKR

How the values were obtained:
Assay in all cases: cell-based or functional assay
human CCR8 [1] = biological target: T1, human CCR8 (human, UniProt P51685 1-355)
human CCR8 [2] = biological target: T1, human CCR8; remark: listed apart in the source
human CCR8 [3] = biological target: T1, human CCR8; remark: listed apart in the source

T1 sequence (P51685 whole entry): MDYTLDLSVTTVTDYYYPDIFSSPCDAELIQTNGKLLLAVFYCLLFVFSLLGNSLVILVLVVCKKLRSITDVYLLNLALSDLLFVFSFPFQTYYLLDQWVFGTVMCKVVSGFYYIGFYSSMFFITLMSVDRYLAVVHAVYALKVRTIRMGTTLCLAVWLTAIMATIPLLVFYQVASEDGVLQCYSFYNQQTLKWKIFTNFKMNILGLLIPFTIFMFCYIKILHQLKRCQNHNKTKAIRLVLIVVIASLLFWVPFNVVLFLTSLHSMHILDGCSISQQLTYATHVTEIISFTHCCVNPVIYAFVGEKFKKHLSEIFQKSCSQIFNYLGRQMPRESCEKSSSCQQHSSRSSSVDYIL

Binder	IC50 (nM), Ca2+ influx by 200 nM hCCL1 (human CCR8 [1]) [nM]	IC50 (nM), Ca2+ influx by 200 nM hCCL1 (human CCR8 [2]) [nM]	also measured
B1	0.16		
B2	0.16		
B3	0.2		
B4	0.7		
B5		0.19	
B6		0.21	
B7	0.21		
B8		0.29	
B9	0.2		
B10	0.3		
B11		0.12	
B12			IC50 (nM), Ca2+ influx by 200 nM hCCL1 (human CCR8 [3]): 0.23 nM

Reference: US20220064312A1 (SHIONOGI, published 2022)
